The source of these data is patent publication US20170298113A1 (TEL HASHOMER MEDICAL RESEARCH INFRASTRUCTURE AND SERVICES, published 2017).

Test [1] has as its target human somatostatin receptor subtype SSTR4 (human) (UniProt P31391). The experiment in a line: FACS, transfected HEK-293 cells. On the technique in general: A flow cytometer gives signals particle by particle.
The target in test [2] is human somatostatin receptor subtype SSTR5 (human) (UniProt P35346). Briefly: FACS, transfected HEK-293 cells.
Test [3] concerns the target human somatostatin receptor subtype SSTR4 (human) (UniProt P31391). The experiment in a line: FACS, transfected HEK-293 cells; row normalised to highest.
Test [4] has as its target human somatostatin receptor subtype SSTR5 (human) (UniProt P35346). The description is as above.
Test [5] concerns the target human somatostatin receptor subtype SSTR4 (human) (UniProt P31391). Briefly: FACS, transfected HEK-293 cells; normalised to Compound 1.
For test [6], the target named is human somatostatin receptor subtype SSTR5 (human) (UniProt P35346). The description is as above.
Test [7] has as its target human somatostatin receptor subtype SSTR1 (human) (UniProt P30872). The experiment in a line: FACS, transfected HEK-293 cells.
Test [8] has as its target human somatostatin receptor subtype SSTR2 (human) (UniProt P30874). Briefly: FACS, transfected HEK-293 cells.
Test [9] deals with human somatostatin receptor subtype SSTR3 (human) (UniProt P32745). The experiment in a line: FACS, transfected HEK-293 cells.
For test [10], the target named is human somatostatin receptor subtype SSTR1 (human) (UniProt P30872). The experiment in a line: FACS, transfected HEK-293 cells; row normalised to highest.
Test [11] deals with human somatostatin receptor subtype SSTR2 (human) (UniProt P30874). The test is described as above.
Test [12] addresses human somatostatin receptor subtype SSTR3 (human) (UniProt P32745). The description is as above.
For test [13], the target named is human somatostatin receptor subtype SSTR1 (human) (UniProt P30872). Briefly: FACS, transfected HEK-293 cells; normalised to Compound 1.
In test [14] the target is human somatostatin receptor subtype SSTR2 (human) (UniProt P30874). Described as above.
The target in test [15] is human somatostatin receptor subtype SSTR3 (human) (UniProt P32745). The description is as above.

*1 amine or outer side, *2 acyl side, *3 side chain or, on linkers, in order; H or OH if unused. Bridges are numbered along the chain shown (N, C = ends). Primed or numbered codes have the meaning given here. [ ]: non-standard residue; d: D form. N(2-mercaptoethyl)Gly = O=C(CN(CCS[*:3])[*:1])[*:2]; FITC′ = fluorescein isothiocyanate; Orn = NCCC[C@H](N)C(=O)O; Aib = CC(C)(N)C(=O)O; GABA = NCCCC(=O)O

human somatostatin receptor subtype SSTR3 (human), sequence (P32745 whole entry): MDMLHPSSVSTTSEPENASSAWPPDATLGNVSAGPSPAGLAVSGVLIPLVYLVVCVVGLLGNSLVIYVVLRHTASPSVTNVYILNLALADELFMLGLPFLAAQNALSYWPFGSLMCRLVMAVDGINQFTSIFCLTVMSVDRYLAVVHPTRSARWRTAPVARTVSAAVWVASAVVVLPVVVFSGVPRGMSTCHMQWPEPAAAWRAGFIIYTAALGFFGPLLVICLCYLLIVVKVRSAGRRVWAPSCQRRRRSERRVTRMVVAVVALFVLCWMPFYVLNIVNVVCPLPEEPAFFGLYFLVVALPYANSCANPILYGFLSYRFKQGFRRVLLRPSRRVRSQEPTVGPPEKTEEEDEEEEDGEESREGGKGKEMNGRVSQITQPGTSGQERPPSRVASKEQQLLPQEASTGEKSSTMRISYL
human somatostatin receptor subtype SSTR2 (human), sequence (P30874 whole entry): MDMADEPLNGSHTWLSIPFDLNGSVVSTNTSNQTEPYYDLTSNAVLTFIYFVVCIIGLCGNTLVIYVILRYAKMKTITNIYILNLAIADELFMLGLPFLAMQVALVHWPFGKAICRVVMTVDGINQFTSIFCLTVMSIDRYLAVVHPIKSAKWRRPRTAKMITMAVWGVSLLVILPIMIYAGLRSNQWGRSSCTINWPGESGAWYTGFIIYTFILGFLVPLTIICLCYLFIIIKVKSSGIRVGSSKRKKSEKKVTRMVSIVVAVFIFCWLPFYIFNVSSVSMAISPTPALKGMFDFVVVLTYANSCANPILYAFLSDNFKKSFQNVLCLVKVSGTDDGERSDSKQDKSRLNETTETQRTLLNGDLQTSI
human somatostatin receptor subtype SSTR5 (human), sequence (P35346 whole entry): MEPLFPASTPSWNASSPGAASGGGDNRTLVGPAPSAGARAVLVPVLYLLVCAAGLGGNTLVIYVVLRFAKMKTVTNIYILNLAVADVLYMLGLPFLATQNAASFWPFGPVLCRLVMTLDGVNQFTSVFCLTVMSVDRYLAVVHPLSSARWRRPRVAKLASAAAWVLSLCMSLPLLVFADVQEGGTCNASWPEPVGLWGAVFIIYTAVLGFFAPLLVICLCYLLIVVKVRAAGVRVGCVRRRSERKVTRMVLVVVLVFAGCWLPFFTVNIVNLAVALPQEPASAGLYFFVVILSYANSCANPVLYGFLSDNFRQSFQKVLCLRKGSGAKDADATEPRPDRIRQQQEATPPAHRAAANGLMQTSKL
human somatostatin receptor subtype SSTR4 (human), sequence (P31391 whole entry): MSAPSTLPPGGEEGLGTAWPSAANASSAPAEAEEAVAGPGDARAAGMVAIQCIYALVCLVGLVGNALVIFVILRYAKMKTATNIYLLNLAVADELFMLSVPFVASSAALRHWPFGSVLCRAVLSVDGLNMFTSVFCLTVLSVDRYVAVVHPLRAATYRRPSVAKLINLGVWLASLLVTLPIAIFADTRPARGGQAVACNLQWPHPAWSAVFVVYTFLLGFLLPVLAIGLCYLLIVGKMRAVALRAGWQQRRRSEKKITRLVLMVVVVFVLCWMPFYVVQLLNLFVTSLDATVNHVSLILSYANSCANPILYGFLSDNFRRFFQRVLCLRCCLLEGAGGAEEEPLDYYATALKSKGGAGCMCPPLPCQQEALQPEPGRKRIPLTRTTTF
human somatostatin receptor subtype SSTR1 (human), sequence (P30872 whole entry): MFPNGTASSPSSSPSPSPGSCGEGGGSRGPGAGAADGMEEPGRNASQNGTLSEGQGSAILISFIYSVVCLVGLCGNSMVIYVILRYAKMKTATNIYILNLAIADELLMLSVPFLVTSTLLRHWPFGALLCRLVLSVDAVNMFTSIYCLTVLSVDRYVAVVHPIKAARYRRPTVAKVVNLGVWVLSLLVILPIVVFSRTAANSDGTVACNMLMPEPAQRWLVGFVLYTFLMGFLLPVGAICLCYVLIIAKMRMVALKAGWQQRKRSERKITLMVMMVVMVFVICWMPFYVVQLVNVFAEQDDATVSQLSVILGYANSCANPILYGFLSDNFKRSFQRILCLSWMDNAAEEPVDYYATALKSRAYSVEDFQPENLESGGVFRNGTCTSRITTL

B1: Compound 14 (peptide)
peptide: XCFWXXTFX
modifications: FITC-GABA-DPhe-Cys*-Phe-Trp-DTrp-LysAc-Thr-Phe-GlyS2*-NH2 (* = S-S bond; LysAc = acetyllysine; GlyS2 = N-thioethyl glycine; C-terminal amide)
For B1, the Relative binding affinity in [1] came out at 3%; in [2], 2%. Moreover, the Adjusted binding affinity is 1 in test [3] and 0.67 in test [4]. In addition, the figures for the Binding affinity relative to Compound 1 (% of Compound 1) in test [5] and in [6] were 13 and 7, respectively.

Regarding {FITC′-GABA}-[dF]CRFF[dW]KTF[N(2-mercaptoethyl)Gly]-NH2 (disulfide 2-10) [Compound 8], the Relative binding affinity in [7] stood at 2.6%; in [8], 4.5%; in [9], 11.5%; in test [1] it was 31.5%; in [2] it was 27.5%. The Adjusted binding affinity in test [10] was determined as 0.08; in test [11] it was 0.14; in test [12], 0.37; in test [3], 1; in test [4] it was 0.87. The Binding affinity relative to Compound 1 (% of Compound 1) was 78 in test [13]; 69 in [14]; 68 in test [15]; 140 in test [5]; 96 in test [6].

For {FITC′-GABA}-[dF]CY[dW][Orn]TF[N(2-mercaptoethyl)Gly]-NH2 (disulfide 2-8) [Compound 7], the Relative binding affinity in [8] stood at 1%; in [9], 2%; in test [1], 1.5%; in test [2] it was 1%. For the same molecule, the Adjusted binding affinity in test [10] stood at 0; in test [11], 0.5; in test [12] it was 1; in [3], 0.75; in test [4], 0.5. Besides, the Binding affinity relative to Compound 1 (% of Compound 1) in test [13] worked out at 0; in test [14], 15; in test [15] it was 12; in test [5], 7; in test [6] it was 4.

B2: Compound 11 (peptide)
peptide: XXFWXKTFX
modifications: FITC-GABA-DPhe-HCys*-Phe-Trp-DTrp-Lys-Thr-Phe-GlyS2*-NH2 (* = S-S bond; HCys = homocysteine; GlyS2 = N-thioethyl glycine; C-terminal amide)
Turning to B2, the Relative binding affinity turned out to be 29% in [1] and 41% in [2]. Also, the Adjusted binding affinity was found to be 0.71 in test [3] and 1 in test [4]. Moreover, the results for the Binding affinity relative to Compound 1 (% of Compound 1) in test [5] and in test [6] were 129 and 144, respectively.

B3: Compound 1 (peptide)
peptide: XCFWXKTFX
modifications: FITC-GABA-DPhe-Cys*-Phe-Trp-DTrp-Lys-Thr-Phe-GlyS2*-NH2 (* = S-S bond; GlyS2 = N-thioethyl glycine; FITC-GABA on the N-terminal amine; C-terminal amide)
In the case of B3, the Relative binding affinity in [7] was 3%; in test [8] it was 6.5%; in test [9] it was 17%; in test [1], 22.5%; in test [2], 28.5%. Also, the Adjusted binding affinity in test [10] is 0.11; in [11], 0.23; in test [12], 0.6; in [3], 0.79; in test [4], 1. Further, the Binding affinity relative to Compound 1 (% of Compound 1) in test [13], in [14], in [15], in test [5] and in [6] was 100 each time.

With {FITC′-GABA}-[dF]RCF[dW][Orn]TF[N(2-mercaptoethyl)Gly]-NH2 (disulfide 3-9) [Compound 5], the results for the Relative binding affinity in test [8], in [9] and in [1] were 1%, 3% and 1%, respectively. Moreover, the Adjusted binding affinity in [10] amounted to 0; in test [11], 0.33; in [12] it was 1; in [3], 0.33; in [4], 0. In addition, the Binding affinity relative to Compound 1 (% of Compound 1) in [13] is 0; in test [14], 15; in test [15], 18; in [5] it was 4; in [6] it was 0.

B4: Compound 16 (peptide)
peptide: XCFWXXTFX
modifications: FITC-GABA-DPhe-Cys*-Phe-Trp-DTrp-HomoLys-Thr-Phe-GlyS2*-NH2 (* = S-S bond; HomoLys = homolysine; GlyS2 = N-thioethyl glycine; C-terminal amide)
As for B4, the Relative binding affinity turned out to be 2.5% in test [8], 12% in test [9], 4.5% in test [1] and 7% in [2]. In addition, the Adjusted binding affinity in test [10] stood at 0; in test [11] it was 0.21; in [12], 1; in test [3], 0.38; in test [4], 0.58. The Binding affinity relative to Compound 1 (% of Compound 1) was determined as 0 in test [13]; 38 in test [14]; 71 in [15]; 20 in test [5]; 25 in test [6].

For {FITC′-GABA}-[dF]CFW[dW][Aib]TF[N(2-mercaptoethyl)Gly]-NH2 (disulfide 2-9) [Compound 13], the Relative binding affinity came to 1% in test [7], 6% in [9], 4% in [1] and 9% in test [2]. In addition, the Adjusted binding affinity came to 0.11 in test [10]; 0 in test [11]; 0.67 in [12]; 0.44 in [3]; 1 in test [4]. In addition, the Binding affinity relative to Compound 1 (% of Compound 1) stood at 33 in test [13]; 0 in test [14]; 35 in [15]; 18 in test [5]; 32 in [6].

For {FITC′-GABA}-[dF]RCY[dW]KTF[N(2-mercaptoethyl)Gly]-NH2 (disulfide 3-9) [Compound 6], the Relative binding affinity came out at 1.5% in [8], 22.5% in test [9], 1.5% in test [1] and 0.5% in [2]. The Adjusted binding affinity in [10] came out at 0; in test [11], 0.07; in [12], 1; in [3], 0.07; in test [4] it was 0.02. Further, the Binding affinity relative to Compound 1 (% of Compound 1) in [13] stood at 0; in test [14], 23; in test [15] it was 132; in test [5], 7; in test [6] it was 2.

B5: Compound 3 (peptide)
peptide: XCFWXXTFX
modifications: FITC-GABA-DPhe-Cys*-Phe-Trp-DTrp-Orn-Thr-Phe-GlyS2*-NH2 (* = S-S bond; GlyS2 = N-thioethyl glycine; Orn = ornithine; C-terminal amide)
Turning to B5, the Relative binding affinity in [7] is 3.6%; in test [8] it was 4.3%; in [9] it was 15.7%; in test [1], 13.3%; in [2], 9.3%. In addition, the Adjusted binding affinity in test [10] was 0.23; in [11] it was 0.27; in test [12], 1; in test [3], 0.85; in test [4], 0.59. The Binding affinity relative to Compound 1 (% of Compound 1) in test [13] worked out at 120; in test [14], 66; in test [15] it was 92; in [5], 59; in test [6], 33.

As to {FITC′-GABA}-[dF]RCF[dW]KTF[N(2-mercaptoethyl)Gly]-NH2 (disulfide 3-9) [Compound 2], the Relative binding affinity in [7] was 5%; in test [8], 5%; in [9] it was 4%; in test [1] it was 4%; in test [2] it was 5%. Further, the Adjusted binding affinity in test [10] stood at 1; in [11], 1; in [12], 0.8; in test [3], 0.8; in test [4], 1. Further, the Binding affinity relative to Compound 1 (% of Compound 1) in test [13] came out at 167; in test [14] it was 77; in test [15], 24; in test [5] it was 18; in test [6], 18.
